US20230348603A1 (VERSEAU THERAPEUTICS, published 2023)
Values belong to the binder of their own block, whether it stands above or below them.

How the values were obtained:
[1] = target: T1, Human VSIG4-L-CHO (human VSIG4 long isoform on CHO-K1 cells) (human, UniProt Q9Y279 20-399); test: flow cytometry (FJB), 200 nM mAb, huVSIG4-L CHO-K1 over parental CHO-K1
T1 construct: also called hVSIG4-L (flow cytometry)
T1 sequence: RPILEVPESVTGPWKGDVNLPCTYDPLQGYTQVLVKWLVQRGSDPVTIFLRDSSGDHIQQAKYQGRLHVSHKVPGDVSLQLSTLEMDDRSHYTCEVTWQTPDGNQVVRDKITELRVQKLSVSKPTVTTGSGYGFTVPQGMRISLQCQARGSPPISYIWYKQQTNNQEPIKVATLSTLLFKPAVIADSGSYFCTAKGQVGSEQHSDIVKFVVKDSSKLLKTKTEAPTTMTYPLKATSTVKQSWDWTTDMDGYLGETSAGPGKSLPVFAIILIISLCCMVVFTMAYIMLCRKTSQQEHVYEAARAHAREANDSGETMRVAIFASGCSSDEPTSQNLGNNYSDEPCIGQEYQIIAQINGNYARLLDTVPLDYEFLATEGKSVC

[2] = target: T2, Human VSIG4-L-Fc (human); test: BLI binning on hVSIG4-L-Fc, competitor 14C05 first;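 also: normalized to binding of second antibody without first competitor antibody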
T2 construct: also called hVSIG4-L-Fc; hVSIG4-L

[3] = target: T2, Human VSIG4-L-Fc; test: BLI binning on hVSIG4-L-Fc, competitor 16E10 first;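 also: normalized to binding of second antibody without first competitor antibody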
[4] = target: T3, Cynomolgus Monkey VSIG4-L-His (cynomolgus monkey); test: SPR (FJB)
T3 construct: ECD with His tag; also called cyVSIG4-L; cyno VSIG4-L-His
T3 chain: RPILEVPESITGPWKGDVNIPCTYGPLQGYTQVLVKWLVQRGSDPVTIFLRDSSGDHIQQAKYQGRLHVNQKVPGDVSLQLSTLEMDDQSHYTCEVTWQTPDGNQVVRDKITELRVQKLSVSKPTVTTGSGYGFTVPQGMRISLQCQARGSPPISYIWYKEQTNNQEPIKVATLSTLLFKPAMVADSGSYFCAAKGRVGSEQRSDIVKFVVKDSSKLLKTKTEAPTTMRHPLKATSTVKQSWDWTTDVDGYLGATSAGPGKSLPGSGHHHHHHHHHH

[5] = target: T4, Human VSIG4-L-His (human, UniProt Q9Y279 20-283); test: SPR (FJB)
T4 construct: long isoform ECD with His tag; also called hVSIG4-L
T4 sequence: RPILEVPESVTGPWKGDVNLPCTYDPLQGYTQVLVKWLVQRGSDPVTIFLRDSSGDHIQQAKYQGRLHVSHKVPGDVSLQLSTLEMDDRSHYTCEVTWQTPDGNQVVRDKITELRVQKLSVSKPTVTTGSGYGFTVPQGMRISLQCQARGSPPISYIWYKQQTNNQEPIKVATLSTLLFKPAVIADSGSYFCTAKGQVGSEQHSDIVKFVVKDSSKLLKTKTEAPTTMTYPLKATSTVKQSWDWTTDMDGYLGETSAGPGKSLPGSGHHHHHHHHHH

[6] = target: T3, Cynomolgus Monkey VSIG4-L-His; test: BLI, IgG on AHC sensor, antigen 100 nM
[7] = target: T4, Human VSIG4-L-His; test: BLI, IgG on AHC sensor, antigen 100 nM
[8] = target: T1, Human VSIG4-L-CHO (human VSIG4 long …); test: flow cytometry (FJB), 200 nM mAb, huVSIG4-L CHO-K1 cells
[9] = target: T2, Human VSIG4-L-Fc; test: ligand competition ELISA (FJB), blocked ligand C3b
[10] = target: T2, Human VSIG4-L-Fc; test: BLI binning on hVSIG4-L-Fc, competitor 15C03 first;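 also: normalized to binding of second antibody without first competitor antibody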
[11] = target: T2, Human VSIG4-L-Fc; test: BLI binning on hVSIG4-L-Fc, competitor 15C04 first;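 also: normalized to binding of second antibody without first competitor antibody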
[12] = target: T2, Human VSIG4-L-Fc; test: BLI binning on hVSIG4-L-Fc, competitor 15A06 first;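 also: normalized to binding of second antibody without first competitor antibody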
[13] = target: T2, Human VSIG4-L-Fc; test: BLI binning on hVSIG4-L-Fc, competitor 12A12 first;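 also: normalized to binding of second antibody without first competitor antibody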
[14] = target: T2, Human VSIG4-L-Fc; test: BLI cross-blocking on hVSIG4-L-Fc, competitor 14C05 first
[15] = target: T2, Human VSIG4-L-Fc; test: BLI cross-blocking on hVSIG4-L-Fc, competitor 12A12 first
[16] = target: T2, Human VSIG4-L-Fc; test: BLI binning on hVSIG4-L-Fc, competitor 13H11 first;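 also: normalized to binding of second antibody without first competitor antibody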
[17] = target: T2, Human VSIG4-L-Fc; test: BLI binning on hVSIG4-L-Fc, competitor 12A08 first;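 also: normalized to binding of second antibody without first competitor antibody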
[18] = target: T2, Human VSIG4-L-Fc; test: BLI binning on hVSIG4-L-Fc, competitor 16E03 first;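 also: normalized to binding of second antibody without first competitor antibody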
[19] = target: T1, Human VSIG4-L-CHO (human VSIG4 long …); test: flow cytometry, CHO-K1 cells expressing hVSIG4-L
[20] = target: T3, Cynomolgus Monkey VSIG4-L-His; test: BLI (Octet), IgG on AHC sensor, antigen 100 nM
[21] = target: T5, Human VSIG4-S-His (human, UniProt Q9Y279 20-283); test: BLI (Octet), IgG on AHC sensor, antigen 100 nM
T5 construct: short isoform ECD with His tag; also called hVSIG4-S; VISG4-S-His
T5 sequence: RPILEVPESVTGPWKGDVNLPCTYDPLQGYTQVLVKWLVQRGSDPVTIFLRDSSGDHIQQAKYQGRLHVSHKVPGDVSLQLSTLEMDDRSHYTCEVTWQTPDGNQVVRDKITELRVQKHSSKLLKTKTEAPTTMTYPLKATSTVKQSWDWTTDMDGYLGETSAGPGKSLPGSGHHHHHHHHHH

[22] = target: T4, Human VSIG4-L-His; test: BLI (Octet), IgG on AHC sensor, antigen 100 nM
[23] = target: T2, Human VSIG4-L-Fc; test: BLI cross-blocking on hVSIG4-L-Fc, competitor 16G02 first
[24] = target: T2, Human VSIG4-L-Fc; test: BLI binning on hVSIG4-L-Fc, competitor 14D12 first;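 also: normalized to binding of second antibody without first competitor antibody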
[25] = target: T2, Human VSIG4-L-Fc; test: ligand blocking of C3b, IgG
[26] = target: T3, Cynomolgus Monkey VSIG4-L-His; test: ELISA, IgG 50 nM on coated antigen;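 also: Mouse-human chimeric IgG4 antibodies incubated 1 h on plate-coated VSIG4 proteins, bound IgG detected with HRP-labelled anti-human IgG, irrelevant antibody and protein as specificity controls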
[27] = target: T2, Human VSIG4-L-Fc; test: ELISA, IgG 50 nM on coated antigen;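 also: Mouse-human chimeric IgG4 antibodies incubated 1 h on plate-coated VSIG4 proteins, bound IgG detected with HRP-labelled anti-human IgG, irrelevant antibody and protein as specificity controls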
[28] = target: T6, Mouse VSIG4-His (mouse); test: ELISA, IgG 50 nM on coated antigen;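 also: Mouse-human chimeric IgG4 antibodies incubated 1 h on plate-coated VSIG4 proteins, bound IgG detected with HRP-labelled anti-human IgG, irrelevant antibody and protein as specificity controls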
T6 construct: ECD with His tag; also called mVSIG4
T6 chain: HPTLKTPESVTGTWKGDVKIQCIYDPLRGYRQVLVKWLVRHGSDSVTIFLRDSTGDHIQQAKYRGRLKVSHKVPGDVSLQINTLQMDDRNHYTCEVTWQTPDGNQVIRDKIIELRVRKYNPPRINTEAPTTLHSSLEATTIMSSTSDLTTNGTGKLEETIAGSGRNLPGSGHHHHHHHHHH

[29] = target: T7, Human VSIG4-S-Fc (human); test: ELISA, IgG 50 nM on coated antigen;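 also: Mouse-human chimeric IgG4 antibodies incubated 1 h on plate-coated VSIG4 proteins, bound IgG detected with HRP-labelled anti-human IgG, irrelevant antibody and protein as specificity controls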
T7 construct: short isoform ECD fused to human Fc1; also called hVSIG4-S
T7 sequence (chain, as listed by the source limits assumed): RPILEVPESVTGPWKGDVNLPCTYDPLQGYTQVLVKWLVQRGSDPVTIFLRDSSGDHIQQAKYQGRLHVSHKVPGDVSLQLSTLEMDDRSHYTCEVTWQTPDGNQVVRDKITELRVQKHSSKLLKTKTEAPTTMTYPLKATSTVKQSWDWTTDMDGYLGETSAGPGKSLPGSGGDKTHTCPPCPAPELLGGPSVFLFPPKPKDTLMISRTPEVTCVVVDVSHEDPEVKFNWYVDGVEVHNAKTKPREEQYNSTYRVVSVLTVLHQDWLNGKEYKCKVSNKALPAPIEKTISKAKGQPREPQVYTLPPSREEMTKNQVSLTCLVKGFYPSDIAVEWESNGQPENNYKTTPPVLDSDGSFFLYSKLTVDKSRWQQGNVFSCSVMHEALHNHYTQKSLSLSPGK

[30] = target: T5, Human VSIG4-S-His; test: BLI (Octet), IgG on AHC sensor
[31] = target: T2, Human VSIG4-L-Fc; test: ligand competition ELISA (FJB), blocked ligand iC3b
[32] = target: T2, Human VSIG4-L-Fc; test: ligand blocking of iC3b, IgG
[33] = target: T2, Human VSIG4-L-Fc; test: ligand competition ELISA (FJB), blocked ligand C3b, 200 nM mAb
[34] = target: T2, Human VSIG4-L-Fc; test: ligand competition ELISA (FJB), blocked ligand iC3b, 200 nM mAb
[35] = target: T3, Cynomolgus Monkey VSIG4-L-His; test: ELISA, IgG 50 nM on coated antigen; ELISA, bivalent IgG on plate-coated cyVSIG4-L (avid format)

Binding (200 nM) Fold-Over-Parental [1]: 304 fold | normalized maximum binding nm shift [2]: 0.11 normalized | normalized maximum binding nm shift [3]: 0.87 normalized | Kd [4]: 5.4 nM | Kd [5]: 1.7 nM | KD relative to parental chimera [6]: 1 fold | KD relative to parental chimera [7]: 1 fold | Binding (200 nM) MFI [8]: 109000 MFI | IC50 [9]: 2.4 nM | normalized maximum binding nm shift [10]: 0.38 normalized | normalized maximum binding nm shift [11]: 0.76 normalized | normalized maximum binding nm shift [12]: 0.68 normalized | normalized maximum binding nm shift [13]: 0.83 normalized | binding signal (nm shift) [14]: 0.11 nm | binding signal (nm shift) [15]: 0.83 nm | normalized maximum binding nm shift [16]: 0.66 normalized | normalized maximum binding nm shift [17]: 0.75 normalized | normalized maximum binding nm shift [18]: 0.62 normalized | EC50 [19]: 4.4 nM | Kd [20]: 30 nM | Kd [21]: 2.69 nM | Kd [22]: 3.46 nM | binding signal (nm shift) [23]: 0.16 nm | normalized maximum binding nm shift [24]: 0.07 normalized | Percent Blocking C3b [25]: 96% | ELISA OD450 [26]: 4.52 OD450 | ELISA OD450 [27]: 4.51 OD450 | ELISA OD450 [28]: 0.055 OD450 | ELISA OD450 [29]: 4.36 OD450
B1: 14C05 mouse/human chimeric IgG4 (S228P) kappa (antibody, V domains shown)
VH: EVMLVESGPELKKPGETVKISCKASGYTFTNYGMNWVKQAPGKGLKWMGSINTYTGEATYADDFKGRFAFSLETSANTAYLQIDNLKNEDTATYFCARGDYYGRGTWFAYWGQGTLVTVSA
VL: ETTVTQSHKFMSTSVGDRVSITCKASQDVSTAVAWYQQKPGQSPKLLIYSASYRYPGVPDRFTGSGSGTDFTFTISSVQAEDLAVYYCQQDYSSPWTFGGGTKLEIKR

Binding (200 nM) Fold-Over-Parental [1]: 140 fold | normalized maximum binding nm shift [2]: 0.74 normalized | normalized maximum binding nm shift [3]: 0.95 normalized | Kd [4]: 20.1 nM | KD relative to parental chimera [6]: 1 fold | KD relative to parental chimera [7]: 1 fold | binding result [30]: no binding (tested: 100 nM) | Binding (200 nM) MFI [8]: 54300 MFI | IC50 [9]: ~7 nM | normalized maximum binding nm shift [10]: 0.86 normalized | normalized maximum binding nm shift [11]: 0.68 normalized | normalized maximum binding nm shift [12]: 0.51 normalized | normalized maximum binding nm shift [13]: 0.74 normalized | IC50 [31]: 440 nM | normalized maximum binding nm shift [16]: 0.09 normalized | normalized maximum binding nm shift [17]: 0.7 normalized | normalized maximum binding nm shift [18]: 0.72 normalized | EC50 [19]: 1.2 nM | Kd [20]: 20.3 nM | Kd [22]: 50.6 nM | Percent Blocking iC3b [32]: 78% | normalized maximum binding nm shift [24]: 0.69 normalized | Percent Blocking C3b [25]: 75% | ELISA OD450 [26]: 4.37 OD450 | ELISA OD450 [27]: 4.27 OD450 | ELISA OD450 [28]: 0.048 OD450 | ELISA OD450 [29]: 0.44 OD450
B2: 13H11 mouse/human chimeric IgG4 (S228P) kappa (antibody, V domains shown)
VH: QIQLVQSGPELKKPGETVKISCKASGYTFENFGMNWVKQAPGKGLKWMGWINTYTGEATYADDFKGRFAFSLETSASTAYLQINNLKNEDTATYFCARDGGFRHFDVWGAGTTVTVSS
VL: ETTVTQSPASLSVATGEKVTIRCITSTDIDDDMNWYQQKPGEPPKLLISEGNTLRPGVPSRFSSSGYGTDFVFTIENMLSEDVADYYCLQSDNLPLTFGAGTKLELKR

Binding (200 nM) Fold-Over-Parental [1]: 63 fold | normalized maximum binding nm shift [2]: 0.8 normalized | normalized maximum binding nm shift [3]: 0.95 normalized | Kd [4]: 14.3 nM | Kd [5]: 15 nM | % Block C3b (200 nM mAb) [33]: -24% | binding result [30]: no binding (tested: 100 nM) | Binding (200 nM) MFI [8]: 23900 MFI | normalized maximum binding nm shift [10]: 0.79 normalized | normalized maximum binding nm shift [11]: 0.15 normalized | normalized maximum binding nm shift [12]: 0.12 normalized | normalized maximum binding nm shift [13]: 0.91 normalized | normalized maximum binding nm shift [16]: 0.53 normalized | normalized maximum binding nm shift [17]: 0.88 normalized | normalized maximum binding nm shift [18]: 0.73 normalized | EC50 [19]: 2.4 nM | Kd [22]: 28.5 nM | % Block iC3b (200 nM mAb) [34]: 2% | normalized maximum binding nm shift [24]: 0.79 normalized | ELISA OD450 [27]: 4.38 OD450 | ELISA OD450 [28]: 0.067 OD450 | ELISA OD450 [29]: 0.24 OD450 | ELISA OD450 [35]: 4.35 OD450
B3: 15A06 mouse/human chimeric IgG4 (S228P) kappa (antibody, V domains shown)
VH: QVQMKQSGPSLVRPSQTLSLTCSVTGDSITSGYWNWIRKFPGDKFEYLGYISYSGFTYYNPSLKSRVSITRDTSKNQYYLQLHSVTTEDTATYYCASSKYGSSLGFPYWGQGTLVTVSA
VL: DVVMTQTPLSLPVSLGDQASISCRSSQSLVHSNGNTYLHWYLQKPGQSPKLLIYKVSNRFSGVPDRFSGSGSGTDFTLKISRVEAEDLGVYFCSQSTHVPFTFGSGTKLEIKR
